Experimental data from patent US20120315703A1.

Molecular target: Lrh-1 (liver receptor homolog 1, Nr5a2) (mouse) (UniProt P45448)
Test: cell-based or functional assay

UniProt P45448, sequence (P45448 whole entry): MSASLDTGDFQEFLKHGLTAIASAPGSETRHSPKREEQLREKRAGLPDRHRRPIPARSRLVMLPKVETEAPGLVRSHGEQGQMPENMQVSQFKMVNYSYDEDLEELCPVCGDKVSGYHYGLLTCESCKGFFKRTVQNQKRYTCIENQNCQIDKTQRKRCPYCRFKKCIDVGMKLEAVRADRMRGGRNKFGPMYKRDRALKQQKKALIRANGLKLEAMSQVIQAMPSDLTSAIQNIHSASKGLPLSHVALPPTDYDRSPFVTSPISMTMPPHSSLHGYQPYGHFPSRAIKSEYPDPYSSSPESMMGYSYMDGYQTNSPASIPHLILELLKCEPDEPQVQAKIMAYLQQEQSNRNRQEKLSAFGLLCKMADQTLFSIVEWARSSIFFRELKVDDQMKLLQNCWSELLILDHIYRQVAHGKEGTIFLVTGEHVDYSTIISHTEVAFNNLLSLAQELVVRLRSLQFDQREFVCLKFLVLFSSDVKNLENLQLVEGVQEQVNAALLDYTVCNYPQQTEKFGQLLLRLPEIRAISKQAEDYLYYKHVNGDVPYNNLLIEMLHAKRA

“Rarg (retinoic acid receptor gamma), full-length (from UniProt P18911 1-458)” showed a luciferase reporter expression (luciferase cassette linked to the Oct4 promoter), fold increase on co-expression of 4 to 5 fold.
